According to a protein production outcome set (Wang et al. 2014):

Assay: label from the status in PepcDB records

Sequence | protein production
MIIQKIKQFFVGSERTIKAKKNIIASLLVKMLSIIISLLLVPVTLNYLNSYEYGVWLTLSSILVWINYFDIGLGNGLRNRLTEALAIGDYEKGRIYISTTFAILLILMLTIYLLYAFLQHFISWKSILNISTNHAFTDLNYLVLIVFAFFCISFVLKFVGIIYLAKQQPVINDLFGAIANLMSLIVIYILTLVTDGNLTYVAIVFSSAPAVVYLLAYPFTFYYKYPNLAPKISAINFHYAKGLLGLGFQFFIIQVSCLLMFATSNILIAQLCGPEEVTPYNIAYKYFSVITMGFTIVITPFWSAVTDALIKEDFLWIRKGIINMLKVWLFFLLCSLVMLFVASWVYSFWVNMSIPFYLSLLLFVYISIFNWNNMFAYFVNGMGKIRLQLYCSVISGGIFIPLAILLGQLWGLVGIIGSMCFSLLVSAVLMPIQLKLLLAKSATGIWNK | failed
MIITIANEKGGSGKSTLCLNLCVQLLLDKKDIAALDTDSQKSLEVFNNIRSETSLPNFTLFNRTGNITDTLKQMMDKYEYILIDTKGEHSKESQRAMLLSDWVLIPTTPSQLDTAVLLDMLERIRDIQALNENLKACIVMNRIPTIPTLKEKKALIDFINQNNANESVFLMDNLLSERIAYKRSVSEGMGVMEYNDNKAKNEWSQFYDELNGYLRIKK | failed
MIIVGFIGLVLVIILSAVLSLLRARSEALRQQQQFLAQLCPQLERQKTDRSPLNIPVVPQECEPLYHALNEMLAALPAGMGKDKLTGLINRVGLKRTLASLMPITQGTLVLIDIYRFRYVNDLLGFVFGDILLKQFAERLTSLSLKPKLIARLNGDEFFLYYEQSLSQEQLLHLRGRLQVPFNIKDTPVSVRLQIGCLQLAQHHADVSNMLRRLDLALKKARSTRIAIACYSENDDIRQLRELKIIDSLPNGLQRNHLYMVYQPKQDVSSEGCTQVEALIRWEHEELGVISPGEFIPLAECAGMIDLVSHWALEQVLQQQVKWRLAGISVCVALNLSTRDLDSETLPHELDARLKHYQLPPECLMIEITESTLMADLNKAVDTLVQIRRLGIHLAIDDFGTGHSSLAYLKHLPANEVKIDKVFLQDLKPNQPSEYILEASVNIAKKLGYEVTVEGVETQEVRDLLVKMGVDRIQGLCYAKPMRAVELEMHWHRLCPAPKMLSANLGSHP | failed
MIKAVKKRKEGNMLKDLNTNQGLKPWRVESVFYCIVIVLIFIGAFKIAEAVFKPLAISIVLGFLVYPVYTFLARFKVPKFLIVFIIFFLLFSFSYLIFSFVYYSVTVLMKQLPYYQNQLAFIMKDVLSRYKVDSSVINDVNFSGYIYPFLTRAYNEIIGFTSSLVVVFLLLYFLLSEIHVFEMKLDKAFKKPISTRFIGALDTINNQIGKYLGIKILVSCLTGILVFIGLTLFGQDFPLVWAVLSFVFNFIPSIGSILAVFFIVITSLIQFYPNLNIVLYVFIYNTSIQMLIGNILEPKMQGKRLDISPFLLLCFLFFWGWLWGIVGLLISYPFTVIVKVIVDNVSWLKSFSVFLGGSEILSNISHISSKDKEI | failed
MIKDCANRYFLSFVVEVEPNTTIANNQSIGIDLGLKTFAVMSNGEKALSPDYSKHDRKIRKLQKKLARQQKDSKRRNNTRVKIAKLHNQIADTRKDFLHKLSTKIINDNQVIVLEDLNVSGMVKNSRLSRVISLQGWREFRNLCEAKSEKFSRDFRVIDRWQPTSQICSCCGFRWGKIDLSVRSILCLSCGTEQERDENASRNIEMVGMGHRHDLKRAGSDCQTTSVASYCELSRITEVESR | failed
MIKETVFKSFDTPSALEQQLASKIASQLQEAVDARGKASLVVSGGSTPLKLFQLLSMKSIDWSDVYITLADERWVEADADASNERLVREHLLQNRASNAKFRGLKNMFSTAEAGADMAAESLSNFPRPFDVVVLGMGNDGHTCSWFPCSAELENALTTQALCVATNPTTAPHGRITLSKSAILNSRQIYLHLVGEQKLSVYRQALESDDVHAMPIRAVLAQRKTPVDVFWSA | not failed
MIKEWATVVSWQNGQAVVSCDVKASCSSCASRAGCGSRVLNKLGPQTTHTIVVPSAEPLAPGQKVELGIAEKSLLGSALLVYMSPLAGLFLCAALFQMLFGSDLAALSGAVLGGVGGFLVARGYSRKLAERDAWQPVILNVALPPDLVRVETTSIETRQ | failed
MIKGTGHMIVNIANDRGMSIDSIRKTIKESVLIAYKKYFGSNENAFIKFDDDTGDLSVYAKKKIVKEVKDSLLEILEKDISKENIVEGDYAYIEINPKVFDRLSIQVAKQRTKNDLQGIEDNEILSEFKSKLNKVVIGYVQQNRNGDLYVNLGLEHHHHHH | not failed
MIKHPLKILFMHGLDSSRESTKFHAIESTNKFCITIDYRNLSYNTVADFYQNTIETIQPDLLIGHNLGGYWALKLSSQYHLAAIVANPSLAPLFRDDYPSLTSKELDTDSPKIAYIELGDESLNMYDIQNVLEDYMIVDSIEGGHHRLENPSKLNILIDHIQSEYFSHTIR | failed
